To fix the notation:
B1: anti-IL-6 Fab, heavy chain A105K (Fab, V domains shown)
VH: EVQLVESGGGLVQPGGSLRLSCAASGFTFSPFAMSWVRQAPGKGLEWVAKISPGGSWTYYSDTVTGRFTFSLDTSKSTAYLQMNSLRAEDTAVYYCARQLWGYYKLDIWGQGTLVTVSS
VL: DIQLTQSPSSLSASVGDRVTITCSASISVSYMYWYQQKPGKAPKLLIYDMSNLASGVPSRFSGSGSGTDFTLTISSLQPEDFATYYCMQWSGYPYTFGQGTKVEIK
notes: built as m22 plus the named change
B2: anti-IL-6 Fab, light chain S55I (Fab, V domains shown)
VH: EVQLVESGGGLVQPGGSLRLSCAASGFTFSPFAMSWVRQAPGKGLEWVAKISPGGSWTYYSDTVTGRFTFSLDTSKSTAYLQMNSLRAEDTAVYYCARQLWGYYALDIWGQGTLVTVSS
VL: DIQLTQSPSSLSASVGDRVTITCSASISVSYMYWYQQKPGKAPKLLIYDMSNLAIGVPSRFSGSGSGTDFTLTISSLQPEDFATYYCMQWSGYPYTFGQGTKVEIK
notes: as for B1
B3: anti-IL-6 Fab, heavy chain Q99A (Fab, V domains shown)
VH: EVQLVESGGGLVQPGGSLRLSCAASGFTFSPFAMSWVRQAPGKGLEWVAKISPGGSWTYYSDTVTGRFTFSLDTSKSTAYLQMNSLRAEDTAVYYCARALWGYYALDIWGQGTLVTVSS
VL: DIQLTQSPSSLSASVGDRVTITCSASISVSYMYWYQQKPGKAPKLLIYDMSNLASGVPSRFSGSGSGTDFTLTISSLQPEDFATYYCMQWSGYPYTFGQGTKVEIK
notes: as for B1
B4: anti-IL-6 Fab, heavy chain A105Q (Fab, V domains shown)
VH: EVQLVESGGGLVQPGGSLRLSCAASGFTFSPFAMSWVRQAPGKGLEWVAKISPGGSWTYYSDTVTGRFTFSLDTSKSTAYLQMNSLRAEDTAVYYCARQLWGYYQLDIWGQGTLVTVSS
VL: DIQLTQSPSSLSASVGDRVTITCSASISVSYMYWYQQKPGKAPKLLIYDMSNLASGVPSRFSGSGSGTDFTLTISSLQPEDFATYYCMQWSGYPYTFGQGTKVEIK
notes: as for B1
B5: anti-IL-6 Fab, heavy chain S30V (Fab, V domains shown)
VH: EVQLVESGGGLVQPGGSLRLSCAASGFTFVPFAMSWVRQAPGKGLEWVAKISPGGSWTYYSDTVTGRFTFSLDTSKSTAYLQMNSLRAEDTAVYYCARQLWGYYALDIWGQGTLVTVSS
VL: DIQLTQSPSSLSASVGDRVTITCSASISVSYMYWYQQKPGKAPKLLIYDMSNLASGVPSRFSGSGSGTDFTLTISSLQPEDFATYYCMQWSGYPYTFGQGTKVEIK
notes: as for B1
B6: anti-IL-6 Fab, light chain V29L (Fab, V domains shown)
VH: EVQLVESGGGLVQPGGSLRLSCAASGFTFSPFAMSWVRQAPGKGLEWVAKISPGGSWTYYSDTVTGRFTFSLDTSKSTAYLQMNSLRAEDTAVYYCARQLWGYYALDIWGQGTLVTVSS
VL: DIQLTQSPSSLSASVGDRVTITCSASISLSYMYWYQQKPGKAPKLLIYDMSNLASGVPSRFSGSGSGTDFTLTISSLQPEDFATYYCMQWSGYPYTFGQGTKVEIK
notes: as for B1
B7: anti-IL-6 Fab, heavy chain S30G (Fab, V domains shown)
VH: EVQLVESGGGLVQPGGSLRLSCAASGFTFGPFAMSWVRQAPGKGLEWVAKISPGGSWTYYSDTVTGRFTFSLDTSKSTAYLQMNSLRAEDTAVYYCARQLWGYYALDIWGQGTLVTVSS
VL: DIQLTQSPSSLSASVGDRVTITCSASISVSYMYWYQQKPGKAPKLLIYDMSNLASGVPSRFSGSGSGTDFTLTISSLQPEDFATYYCMQWSGYPYTFGQGTKVEIK
notes: as for B1
B8: anti-IL-6 Fab, light chain A54Y (Fab, V domains shown)
VH: EVQLVESGGGLVQPGGSLRLSCAASGFTFSPFAMSWVRQAPGKGLEWVAKISPGGSWTYYSDTVTGRFTFSLDTSKSTAYLQMNSLRAEDTAVYYCARQLWGYYALDIWGQGTLVTVSS
VL: DIQLTQSPSSLSASVGDRVTITCSASISVSYMYWYQQKPGKAPKLLIYDMSNLYSGVPSRFSGSGSGTDFTLTISSLQPEDFATYYCMQWSGYPYTFGQGTKVEIK
notes: as for B1
B9: anti-IL-6 Fab, light chain S55T (Fab, V domains shown)
VH: EVQLVESGGGLVQPGGSLRLSCAASGFTFSPFAMSWVRQAPGKGLEWVAKISPGGSWTYYSDTVTGRFTFSLDTSKSTAYLQMNSLRAEDTAVYYCARQLWGYYALDIWGQGTLVTVSS
VL: DIQLTQSPSSLSASVGDRVTITCSASISVSYMYWYQQKPGKAPKLLIYDMSNLATGVPSRFSGSGSGTDFTLTISSLQPEDFATYYCMQWSGYPYTFGQGTKVEIK
notes: as for B1
B10: anti-IL-6 Fab, heavy chain S30W (Fab, V domains shown)
VH: EVQLVESGGGLVQPGGSLRLSCAASGFTFWPFAMSWVRQAPGKGLEWVAKISPGGSWTYYSDTVTGRFTFSLDTSKSTAYLQMNSLRAEDTAVYYCARQLWGYYALDIWGQGTLVTVSS
VL: DIQLTQSPSSLSASVGDRVTITCSASISVSYMYWYQQKPGKAPKLLIYDMSNLASGVPSRFSGSGSGTDFTLTISSLQPEDFATYYCMQWSGYPYTFGQGTKVEIK
notes: as for B1
B11: anti-IL-6 Fab, heavy chain Y103D (Fab, V domains shown)
VH: EVQLVESGGGLVQPGGSLRLSCAASGFTFSPFAMSWVRQAPGKGLEWVAKISPGGSWTYYSDTVTGRFTFSLDTSKSTAYLQMNSLRAEDTAVYYCARQLWGDYALDIWGQGTLVTVSS
VL: DIQLTQSPSSLSASVGDRVTITCSASISVSYMYWYQQKPGKAPKLLIYDMSNLASGVPSRFSGSGSGTDFTLTISSLQPEDFATYYCMQWSGYPYTFGQGTKVEIK
notes: as for B1
B12: anti-IL-6 Fab, heavy chain L100Q (Fab, V domains shown)
VH: EVQLVESGGGLVQPGGSLRLSCAASGFTFSPFAMSWVRQAPGKGLEWVAKISPGGSWTYYSDTVTGRFTFSLDTSKSTAYLQMNSLRAEDTAVYYCARQQWGYYALDIWGQGTLVTVSS
VL: DIQLTQSPSSLSASVGDRVTITCSASISVSYMYWYQQKPGKAPKLLIYDMSNLASGVPSRFSGSGSGTDFTLTISSLQPEDFATYYCMQWSGYPYTFGQGTKVEIK
notes: as for B1
B13: anti-IL-6 antibody, heavy chain variant I (M34I/G66D/I108V), light chain variant III (M32L/M50D/N52S/M88Q) (antibody, human IgG1, V domains shown)
VH: EVQLVESGGGLVQPGGSLRLSCAASGFTFSPFAISWVRQAPGKGLEWVAKISPGGSWTYYSDTVTDRFTFSLDTSKSTAYLQMNSLRAEDTAVYYCARQLWGYYALDVWGQGTLVTVSS
VL: DIQLTQSPSSLSASVGDRVTITCSASISVSYLYWYQQKPGKAPKLLIYDDSSLASGVPSRFSGSGSGTDFTLTISSLQPEDFATYYCQQWSGYPYTFGQGTKVEIK
notes: engineered human IgG1; also called I/III
B14: anti-IL-6 antibody, heavy chain WT / light chain WT (antibody, human IgG1, V domains shown)
VH: EVQLVESGGGLVQPGGSLRLSCAASGFTFSPFAMSWVRQAPGKGLEWVAKISPGGSWTYYSDTVTGRFTFSLDTSKSTAYLQMNSLRAEDTAVYYCARQLWGYYALDIWGQGTLVTVSS
VL: DIQLTQSPSSLSASVGDRVTITCSASISVSYMYWYQQKPGKAPKLLIYDMSNLASGVPSRFSGSGSGTDFTLTISSLQPEDFATYYCMQWSGYPYTFGQGTKVEIK
notes: Full antibody on an engineered human IgG1 framework, Fc with L234A, L235A, G237A and L443C (EU numbering), expressed in Expi293 cells; also called wild-type; parent molecule
B15: anti-IL-6 antibody, heavy chain T63Q, G66D / light chain WT (antibody, human IgG1, V domains shown)
VH: EVQLVESGGGLVQPGGSLRLSCAASGFTFSPFAMSWVRQAPGKGLEWVAKISPGGSWTYYSDQVTDRFTFSLDTSKSTAYLQMNSLRAEDTAVYYCARQLWGYYALDIWGQGTLVTVSS
VL: DIQLTQSPSSLSASVGDRVTITCSASISVSYMYWYQQKPGKAPKLLIYDMSNLASGVPSRFSGSGSGTDFTLTISSLQPEDFATYYCMQWSGYPYTFGQGTKVEIK
notes: Derived as m2; Engineered human IgG1
B16: anti-IL-6 antibody, heavy chain T65Q, G66D / light chain WT (antibody, human IgG1, V domains shown)
VH: EVQLVESGGGLVQPGGSLRLSCAASGFTFSPFAMSWVRQAPGKGLEWVAKISPGGSWTYYSDTVQDRFTFSLDTSKSTAYLQMNSLRAEDTAVYYCARQLWGYYALDIWGQGTLVTVSS
VL: DIQLTQSPSSLSASVGDRVTITCSASISVSYMYWYQQKPGKAPKLLIYDMSNLASGVPSRFSGSGSGTDFTLTISSLQPEDFATYYCMQWSGYPYTFGQGTKVEIK
notes: as for B15

These results are taken from patent US20240368267A1 (KODIAK SCIENCES, published 2024).

In the first experiment the target is T1, recombinant human IL-6 (human, UniProt P05231 30-212).
T1 construct: bought protein; also called interleukin-6
T1 sequence (P05231 30-212 limits assumed): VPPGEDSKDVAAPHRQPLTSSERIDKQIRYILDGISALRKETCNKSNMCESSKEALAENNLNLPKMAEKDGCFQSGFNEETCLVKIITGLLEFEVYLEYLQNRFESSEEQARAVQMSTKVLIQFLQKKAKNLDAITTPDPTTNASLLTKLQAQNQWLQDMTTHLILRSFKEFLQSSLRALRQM
Nature of the experiment: Biacore, Fab lysate over IL-6 chip, 25 C. The procedure:
Fab libraries were constructed containing random single point mutations for all 71 CDR positions, excluding substitutions for Cys, Met and Asn due to the chemical liabilities associated with these amino acids. Small-scale expression in 96 well plates format was utilized for screening the Fab libraries. E. coli colonies (TG1 cells, Zymo Research) containing randomized single point mutations were picked into 96 well plates (1.5 mL) and grown overnight at 30° C. in LB Amp+2% glucose. A separate 96 well plate was created on the following day by removing 100 μL of culture and adding 100 μL of 30% glycerol, then stored at −80° C. The remaining culture was spun down for 20 min and later resuspended in 1.5 mL of LB Amp containing 1 mM IPTG for induction of protein expression at 30° C. After 5 hours, cells were spun down, resuspended in 500 μL of HBS-EP+ buffer and lysed by one freeze/thaw cycle. Lysates were centrifuged for 30 minutes and vacuum filtered (200 μL) into round bottom 96 well plates for Biacore analysis.
Three ranges of antigen density (100-150 RU, 300-400 RU, 400-600 RU) were obtained by using variable flow times for each chip channel, later blocked with ethanolamine. Supernatants of the 96-well filtered culture lysates were injected at […] for 120 seconds. Fitting of dissociation curves (300 seconds) to single exponential decay curve was used for the determination of dissociation rates (koff). Chip surfaces were regenerated with 10 mM Glycine pH 1.7 solution injected at 50 μL/min during 60 seconds after every cycle of sample binding and dissociation.
(In general: In SPR one partner is held on a chip, and binding of the other changes the refractive index at the surface.)
The term koff denotes the rate constant with which the complex falls apart. With B1, the koff was found to be 0.00401 s⁻¹.

As for B2, the koff came to 0.005 s⁻¹.

Consider B3, for which the koff turned out to be 0.00385 s⁻¹.

For the molecule B4, the koff came to 0.00378 s⁻¹.

On to B5, for which the koff worked out at 0.00352 s⁻¹.

With B6, the koff is 0.00943 s⁻¹.

As for B7, the koff is 0.00977 s⁻¹.

In the case of B8, the koff came to 0.00529 s⁻¹.

On to B9, for which the koff is 0.0052 s⁻¹.

Take B10: the koff came to 0.00869 s⁻¹.

Consider B11, for which the koff was found to be 0.00503 s⁻¹.

As to B12, the koff was 0.00245 s⁻¹.

A further experiment addresses T1, recombinant human IL-6. Nature of the experiment: Biacore, antibody captured on Protein A, IL-6 as analyte. The method, then: (§1) Antibodies were captured on a Protein A chip (GE) by injecting 1:20 cell supernatant dilutions at 10 μL/min for 60 seconds. […] The sensor chip was regenerated by a 60 seconds injection of 10 mM Glycine pH 1.7 at the flow rate of […]. […] For this setup, 1 μg/mL of purified antibody was injected over a Protein A chip at 10 μL/min for 25 seconds. […] The sensor chip was regenerated by a 60 seconds injection of 10 mM Glycine pH 1.7 at flow rate of 50 μL/min. Data analysis for supernatant and purified samples were performed using BIAevaluation software (GE). All sensorgrams were double reference subtracted and fit using a 1:1 Langmuir binding model.
For the molecule B13, the binding result was “binds”.

The target in a further experiment is T2, human IL-6 (human, UniProt P05231 30-212).
T2 construct: also called interleukin-6
T2 sequence (P05231 30-212 limits assumed): as above
Briefly: SPR (Biacore T200), purified antibody captured on Protein A, IL-6 flowed over, 37 C. The procedure:
as §1
Usually Kd stands for a measure of binding affinity in units of concentration. A low value points to tighter binding. One may read the kon as a measure of how fast the partners come together. Higher therefore signals fast association. Molecule B14 yielded a Kd of 0.226 nM, a koff of 0.000128 s⁻¹ and a kon of 565000 M⁻¹ s⁻¹.

Regarding B15, the Kd was 0.193 nM, the koff was 0.000251 s⁻¹ and the kon turned out to be 1.3e+06 M⁻¹ s⁻¹.

B16: the Kd worked out at 0.148 nM, the koff is 0.000262 s⁻¹ and the kon stood at 1.77e+06 M⁻¹ s⁻¹.

The next experiment concerns the target T2, human IL-6. Nature of the experiment: SPR (Biacore T200), antibody from cell supernatant captured on Protein A, IL-6 flowed over, 37 C. The method, then:
Those four positions were selected based on their tolerance for mutations as observed in bacterial and mammalian screens. […] These cultures were centrifuged and supernatants containing secreted antibodies were harvested and diluted in HBS-EP+ running buffer (1:20 ratio).
as §1
Take B14: the dissociation constant Kd was 0.381 nM, the koff is 0.000255 s⁻¹ and the kon amounted to 670000 M⁻¹ s⁻¹.

The molecule B15 yielded a Kd of 0.203 nM, a koff of 0.000408 s⁻¹ and a kon of 2.01e+06 M⁻¹ s⁻¹.

In turn, B16 returned a Kd of 0.158 nM, a koff of 0.000517 s⁻¹ and a kon of 3.28e+06 M⁻¹ s⁻¹.
